A short description of the data set: self-splicing fitness, log relative to wild type (ln ratio); higher = more splicing; Tetrahymena group I intron in knt gene, E. coli kanamycin selection, DiMSum; sequences stand for … in CUCUCU…GGAGGGAAAAGUUAUCAGGCAUGCACCUGGUAGCUAGUCUUUAAACCAAUAGAUUGCAUCGGUUUAAAAGGCAAGACCGUCAAAUUGCGGGAAAGGGGUCAACAGCCGUUCAGUACCAAGUCUCAGGGGAAACUUUGAGAUGGCCUUGCAAAGGGUAUGGUAAUAAGCUGACGGACAUGGUCCUAACCACGCAGCCAAGUCCUAAGUCAACAGAUCUUCUGUUGAUAUGGAUGCAGUUCACAGACUAAAUGUCGGUCGGGGAAGAUGUAUUCUUCUCAUAAGAUAUAGUCGGACCUCUCCUUAAUGGGAGCUAGCGGAUGAAGUGAUGCAACACUGGAGCCGCUGGGAACUAAUUUGUAUGCGAAAGUAUAUUGAUUAGUUUUGGAGUACUCGUGGUCG
The procedure, abridged: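 Pooled colonies went to amplicon sequencing on an Illumina HiSeq 2500 after six replicate transformations. The plates were LB agar with 100 μg/mL carbenicillin, 50 μM IPTG and 0.2% rhamnose, with or without 25 μg/mL kanamycin, incubated overnight at 37°C or 30°C. The E. coli BL21(DE3) library had all eight P1ex-region intron nucleotides randomised, the intron placed in the knt kanamycin-resistance gene on pET-22b(+). DiMSum fitness is the error-weighted combination of replicate fold changes, kanamycin against none, normalised to wild type.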

± gives the uncertainty stated by the source.

For CUACAGCAAUAUUACGUCAG, the “self-splicing fitness (ln)” value was -1.55 ± 0.12 (30 °C) and -1.18 ± 0.13 (37 °C).

As to CGACAGCAAUAUUACGGUUA, the “self-splicing fitness (ln)” value reads like this: (30 °C) -0.601 ± 0.062; (37 °C) 0.0311 ± 0.067.

Consider GCCGAGCAAUAUUACGUUCG, for which the “self-splicing fitness (ln)” value was -2.72 ± 0.26 (30 °C) and -2 ± 0.34 (37 °C).

On to ACUUAGCAAUAUUACGUACA, for which the “self-splicing fitness (ln)” value (30 °C) is -1.84 ± 0.17 and the “self-splicing fitness (ln)” value (37 °C) is -0.763 ± 0.15.

In the case of AGCAAGCAAUAUUACGGGGG, the “self-splicing fitness (ln)” value by setting is: (30 °C) -3.78 ± 0.15; (37 °C) -2.45 ± 0.19.

As to CCUCAGCAAUAUUACGUGAU, the “self-splicing fitness (ln)” value is, setting by setting: (30 °C) -2.84 ± 0.2; (37 °C) -2.71 ± 0.43.

In the case of CCGUAGCAAUAUUACGAAAC, the “self-splicing fitness (ln)” value is -2.61 ± 0.41 (30 °C) and -0.972 ± 0.29 (37 °C).

With AGUCAGCAAUAUUACGUCAG, the “self-splicing fitness (ln)” value runs as follows: (30 °C) -2.65 ± 0.16; (37 °C) -1.86 ± 0.15.

As to AAGCAGCAAUAUUACGGCCU, the “self-splicing fitness (ln)” value (30 °C) was -0.182 ± 0.057 and the “self-splicing fitness (ln)” value (37 °C) was determined as 0.636 ± 0.074.

As for ACUCAGCAAUAUUACGGGUC, the “self-splicing fitness (ln)” value is -2.95 ± 0.16 (30 °C) and -2.2 ± 0.17 (37 °C).

Consider UAUCAGCAAUAUUACGGAUU, for which the “self-splicing fitness (ln)” value runs as follows: (30 °C) -0.839 ± 0.079; (37 °C) 0.0545 ± 0.1.

Consider UGUUAGCAAUAUUACGGCGU, for which the “self-splicing fitness (ln)” value is, setting by setting: (30 °C) -0.742 ± 0.1; (37 °C) -0.892 ± 0.14.

For CCCAAGCAAUAUUACGCGAA, the “self-splicing fitness (ln)” value runs as follows: (30 °C) -3.55 ± 0.15; (37 °C) -2.63 ± 0.17.

As to AACCAGCAAUAUUACGACUG, the “self-splicing fitness (ln)” value (30 °C) was -3.11 ± 0.15 and the “self-splicing fitness (ln)” value (37 °C) is -1.83 ± 0.12.

As to UGUAAGCAAUAUUACGGCCC, the “self-splicing fitness (ln)” value (30 °C) was -2.98 ± 0.38.

For the sequence AGUAAGCAAUAUUACGUGCC, the “self-splicing fitness (ln)” value reads like this: (30 °C) -0.0863 ± 0.11; (37 °C) -0.612 ± 0.16.

GGUUAGCAAUAUUACGCGUA: the “self-splicing fitness (ln)” value was -0.642 ± 0.091 (30 °C) and -0.174 ± 0.083 (37 °C).

As to UCCGAGCAAUAUUACGCAAC, the “self-splicing fitness (ln)” value is, setting by setting: (30 °C) -2.57 ± 0.3; (37 °C) -1.66 ± 0.33.

With UUGAAGCAAUAUUACGAGUA, the “self-splicing fitness (ln)” value (30 °C) was -1.83 ± 0.077 and the “self-splicing fitness (ln)” value (37 °C) was -0.59 ± 0.085.

In the case of AUCUAGCAAUAUUACGCGUG, the “self-splicing fitness (ln)” value runs as follows: (30 °C) -1.23 ± 0.1; (37 °C) -1.01 ± 0.12.

On to UGGGAGCAAUAUUACGACCU, for which the “self-splicing fitness (ln)” value runs as follows: (30 °C) -0.992 ± 0.41; (37 °C) -0.238 ± 0.46.

Consider UCGGAGCAAUAUUACGCGCG, for which the “self-splicing fitness (ln)” value by setting is: (30 °C) -2.02 ± 0.18; (37 °C) -0.752 ± 0.2.

Consider ACUGAGCAAUAUUACGGUAC, for which the “self-splicing fitness (ln)” value (30 °C) was -3.19 ± 0.48.

Take CGCCAGCAAUAUUACGGGCC: the “self-splicing fitness (ln)” value is, setting by setting: (30 °C) -3.13 ± 0.21; (37 °C) -1.72 ± 0.2.

Take GCAAAGCAAUAUUACGCGGA: the “self-splicing fitness (ln)” value by setting is: (30 °C) -3.48 ± 0.27; (37 °C) -1.94 ± 0.17.

Turning to ACUAAGCAAUAUUACGUUCU, the “self-splicing fitness (ln)” value runs as follows: (30 °C) -0.391 ± 0.071; (37 °C) -0.412 ± 0.094.

As for AGGAAGCAAUAUUACGCCCA, the “self-splicing fitness (ln)” value is -0.363 ± 0.42 (30 °C) and 1.47 ± 0.39 (37 °C).

With CCGCAGCAAUAUUACGAGAU, the “self-splicing fitness (ln)” value is, setting by setting: (30 °C) -4.09 ± 0.42; (37 °C) -2.2 ± 0.19.

Take GGGAAGCAAUAUUACGAUAC: the “self-splicing fitness (ln)” value (30 °C) is -0.528 ± 0.14 and the “self-splicing fitness (ln)” value (37 °C) is -0.986 ± 0.16.

On to GUCAAGCAAUAUUACGCCUU, for which the “self-splicing fitness (ln)” value is -1.61 ± 0.068 (30 °C) and -0.671 ± 0.097 (37 °C).

Turning to AGCAAGCAAUAUUACGGAGU, the “self-splicing fitness (ln)” value is, setting by setting: (30 °C) -2.98 ± 0.13; (37 °C) -1.6 ± 0.12.

In the case of GCGGAGCAAUAUUACGGAGU, the “self-splicing fitness (ln)” value (30 °C) was -2.51 ± 0.33 and the “self-splicing fitness (ln)” value (37 °C) is -2.1 ± 0.29.

For GCCGAGCAAUAUUACGAGAA, the “self-splicing fitness (ln)” value by setting is: (30 °C) -2.99 ± 0.19; (37 °C) -0.755 ± 0.12.

As to GAACAGCAAUAUUACGUGGC, the “self-splicing fitness (ln)” value runs as follows: (30 °C) -3.03 ± 0.17; (37 °C) -2.6 ± 0.18.

As for UCUUAGCAAUAUUACGAUCG, the “self-splicing fitness (ln)” value was -1.44 ± 0.19 (30 °C) and -0.631 ± 0.19 (37 °C).

As to UAGCAGCAAUAUUACGGUUU, the “self-splicing fitness (ln)” value (30 °C) was -0.986 ± 0.051 and the “self-splicing fitness (ln)” value (37 °C) is -0.354 ± 0.067.

As for UAUCAGCAAUAUUACGGAGU, the “self-splicing fitness (ln)” value by setting is: (30 °C) -2.09 ± 0.068; (37 °C) -0.974 ± 0.09.

Source of the values: the supplement of paper PMC7877785.
